# Where two headings read alike, the source gives them in different places.
# T1: human Trop2 on cells (FaDu cells, endogenous; ExpiCHO cells overexpressing human Trop2) (human, UniProt P09758 27-323)
# T1 construct: Cell-surface form
# T1 sequence: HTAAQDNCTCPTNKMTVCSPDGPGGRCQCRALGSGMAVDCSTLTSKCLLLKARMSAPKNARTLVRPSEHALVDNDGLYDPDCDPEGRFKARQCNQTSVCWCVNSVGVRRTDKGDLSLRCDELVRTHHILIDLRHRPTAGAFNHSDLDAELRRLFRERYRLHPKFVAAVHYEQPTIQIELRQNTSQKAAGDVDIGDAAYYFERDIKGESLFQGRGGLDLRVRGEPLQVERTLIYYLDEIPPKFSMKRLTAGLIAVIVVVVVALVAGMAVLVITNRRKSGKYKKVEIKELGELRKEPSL
# T2: mouse Trop2 on ExpiCHO cells overexpressing mouse Trop2 (mouse, UniProt Q8BGV3 25-317)
# T2 construct: Cell-surface form
# T2 sequence: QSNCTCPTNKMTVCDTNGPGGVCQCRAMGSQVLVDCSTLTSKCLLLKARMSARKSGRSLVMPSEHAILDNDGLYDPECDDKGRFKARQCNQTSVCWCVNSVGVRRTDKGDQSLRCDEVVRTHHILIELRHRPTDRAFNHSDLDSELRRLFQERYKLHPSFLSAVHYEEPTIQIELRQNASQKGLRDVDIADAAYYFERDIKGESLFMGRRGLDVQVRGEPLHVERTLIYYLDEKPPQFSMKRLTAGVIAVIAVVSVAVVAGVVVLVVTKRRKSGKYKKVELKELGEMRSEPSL
# T3: human TROP2 (purified recombinant antigen, Acro Biosystems Cat #TR2-H5223) (human, UniProt P09758 27-274)
# T3 construct: Bought recombinant protein; also called huTROP2
# T3 sequence: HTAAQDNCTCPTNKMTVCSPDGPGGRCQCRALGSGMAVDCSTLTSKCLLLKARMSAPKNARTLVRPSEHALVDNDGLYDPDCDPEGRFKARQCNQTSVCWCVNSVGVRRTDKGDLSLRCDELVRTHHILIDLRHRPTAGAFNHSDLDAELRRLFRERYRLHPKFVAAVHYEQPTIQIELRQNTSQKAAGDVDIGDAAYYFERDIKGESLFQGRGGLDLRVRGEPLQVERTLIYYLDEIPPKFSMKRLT
# T4: mouse TROP2 (purified recombinant antigen, Acro Biosystems Cat #TR2-M52H6) (mouse, UniProt Q8BGV3 25-270)
# T4 construct: Bought recombinant protein; also called msTROP2
# T4 sequence: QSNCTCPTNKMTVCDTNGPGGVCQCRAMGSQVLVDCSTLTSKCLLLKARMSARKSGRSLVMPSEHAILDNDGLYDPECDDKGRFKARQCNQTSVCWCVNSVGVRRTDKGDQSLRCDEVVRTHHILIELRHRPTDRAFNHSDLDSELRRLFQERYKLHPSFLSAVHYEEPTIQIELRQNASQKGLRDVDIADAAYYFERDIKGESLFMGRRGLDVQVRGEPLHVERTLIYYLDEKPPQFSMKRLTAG
# T5: cynomolgus/rhesus TROP2 (purified recombinant antigen, Acro Biosystems Cat #TR2-R52H3) (cynomolgus/rhesus, UniProt P09758 27-274 (human entry))
# T5 construct: Bought recombinant protein; also called cyTROP2; cyno/rhesus TROP2
# T5 chain: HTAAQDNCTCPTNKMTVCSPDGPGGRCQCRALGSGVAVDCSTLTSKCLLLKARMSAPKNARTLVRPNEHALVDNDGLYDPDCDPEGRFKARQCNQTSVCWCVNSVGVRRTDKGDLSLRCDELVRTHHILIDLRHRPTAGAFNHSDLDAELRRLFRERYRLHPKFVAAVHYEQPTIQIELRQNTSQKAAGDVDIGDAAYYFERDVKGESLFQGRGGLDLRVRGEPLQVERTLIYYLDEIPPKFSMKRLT
# T6: human EpCAM (purified recombinant antigen, Acro Biosystems Cat #EPM-H5223) (human, UniProt P16422 24-265)
# T6 construct: Bought recombinant protein
# T6 sequence: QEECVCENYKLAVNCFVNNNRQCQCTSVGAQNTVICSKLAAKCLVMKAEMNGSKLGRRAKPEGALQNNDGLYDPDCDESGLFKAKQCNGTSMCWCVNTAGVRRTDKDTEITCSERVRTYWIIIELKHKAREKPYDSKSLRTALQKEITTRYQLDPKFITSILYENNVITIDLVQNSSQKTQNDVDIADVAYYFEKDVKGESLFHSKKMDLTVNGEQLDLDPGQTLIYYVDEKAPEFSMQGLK
# B1: SD-530939 (antibody, V domains shown)
# VH: AVTLDESGGGLQTPGGGLSLVCKASGFDFIDYDMFWVRQAPGKGLEWVGVINRSGSYTNYAPAVKGRATISRDNGQSTLRLQLNNLRAEDTGTYYCARGACTHCWDADSAGYIDAWGHGTEVIVSS
# VL: ALALTQPSSVSANPGETVKITCSGGYSGYGWYQQKSPGSAPVTVIYWNDKRPSNIPSRFSGSLSGSTNTLIITGVQAEDEAVYFCGGYDSSPGYVGIFGAGTTLTVL
# notes: Chicken/human chimera
# B2: SD-320063 (antibody, V domains shown)
# VH: AVTLDESGGGLQTPGGGLSLVCKASGFDFIDYDMFWVRQAPGKGLAWVGVINRSGSYTNYAPAVKGRATISRDNGQSTVRLQLNNLRAEDTGTYYCAKGVCTHCWDADSAGNIDAWGHGTEVIVSS
# VL: ALALTQPSSVSANPGETVEITCSGGSGNYGWFQQKSPGSAPVTVIYNNNYRLSDIPSRFSGSASGSTATLTITGVRVEDEAVYFCGSADSTYVGLFGAGTTLTVL
# notes: Chicken/human chimera
# B3: SD-589775 (antibody, V domains shown)
# VH: AVTLDESGGGLQTPGGGLSLVCKASGFDFIDYDMFWVRQAPGKGLEWVGVINRSGSYTNYAPAVKGRATISRDNGQSTMRLQLNNLRAEDTGTYYCARGACTHCWDADSAGYIDAWGHGTEVIVSS
# VL: ALALTQPSSVSANPGGTVKITCSGSSGSYGWHQQKSPGSAPVTVIYSSDKRPSDIPSRFSGALSGSTATLTITGVRAEDEAVYYCGGYDGSTDVGIFGAGTTLTVL
# notes: Chicken/human chimera; also called parental chimera
# B4: SD-802432 (antibody, V domains shown)
# VH: AVTLDESGGGLQTPGGGLSLVCKASGFDFIDYDMFWVRQAPGKGLEWVAVINRSGSYTNYAPAVKGRATISRDNGQSTLRLQLNNLRAEDTGTYYCARGACTHCWDADSAGYIDTWGHGTEVIVSS
# VL: ALALTQPSSVSANPGETVKITCSGGSGSYGWFQQKSPGIAPVIVIFNDDNRPSDIPSRFSGSKSGSTGTLTITGVQAEDEAVYFCGGYDGSTDAGIFGAGTTLTVL
# notes: Chicken/human chimera
# B5: SD-661765 (antibody, V domains shown)
# VH: QVQLVETGGDLVKPGGSLKLSCAASGFTFSTYGMSWVRQTPDKRLEWVATISSGGIYTYYSDSVKGRFTISRDNAKNTLYLQMSSLKSEDTAMYYCARDGNYLGFDFWGQGTTLTVSS
# VL: DIVMTQSPASLAVSLGQRATISCRASESVESYGNSFMNWYQQKPGQPPKLLIYRASNLESGIPARFSGSGSRTDFTLTINPVEADDVATYYCQQSYEDPRTFGGGTKLEIK
# notes: Mouse/human chimera
# B6: SD-168804 (antibody, V domains shown)
# VH: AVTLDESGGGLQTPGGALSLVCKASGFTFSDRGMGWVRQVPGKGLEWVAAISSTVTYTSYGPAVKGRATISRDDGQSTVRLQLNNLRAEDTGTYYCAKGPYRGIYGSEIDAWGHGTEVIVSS
# VL: ALALTQPSSVSANPGETVKITCSGGSYSYGSYYYGWYQQKSPGSAPVTVIYDNDKRPSGIPSRFSGSKSGSTGTLTITGVQAEDEAVYFCGSTDSSSTAAFGAGTTLTVL
# notes: Chicken/human chimera
# B7: SD-813149 (antibody, V domains shown)
# VH: EVKLDESGGGLVKPGGSLKLSCAASGFTFSSYTMSWVRQTPEKRLEWVATINSDGIYTYYPDSVKGRFTISRDNAKNTLYLQMSSLKSEDTAMYYCTRVHYYGYDAMDYWGQGTSVTVSS
# VL: EIQMTQSPASLSASVGETVTITCRASENIYSYLAWYQQKQGKSPQLLVYSAKTLAEGVPSRFSGSGSGTHFSLKINSLQPEDFGSYYCQHHYGIPLTFGAGTKLELK
# notes: Mouse/human chimera
# How the values were obtained:
# [1] = molecular target: T1, human Trop2 on cells (FaDu cells, …); experiment: flow cytometry on FaDu cells (endogenous human Trop2); average of n=1-3 experiments
# [2] = molecular target: T2, mouse Trop2 on ExpiCHO cells …; experiment: flow cytometry on ExpiCHO cells overexpressing mouse Trop2, percent of cells bound
# [3] = molecular target: T3, human TROP2 (purified recombinant …); experiment: SPR, Carterra LSA; antibody captured on anti-human IgG, antigen injected; 1:1 fit
# [4] = molecular target: T4, mouse TROP2 (purified recombinant …); experiment: as above
# [5] = molecular target: T5, cynomolgus/rhesus TROP2 (purified …); experiment: as above
# [6] = molecular target: T1, human Trop2 on cells (FaDu cells, …); experiment: flow cytometry on ExpiCHO cells overexpressing human Trop2, percent of cells bound
# [7] = molecular target: T4, mouse TROP2 (purified recombinant …); experiment: SPR, Carterra LSA; ratio of KD values, reference huTROP2
# [8] = molecular target: T6, human EpCAM (purified recombinant …); experiment: SPR, Carterra LSA; antibody captured on anti-human IgG, antigen injected
# [9] = molecular target: T3, human TROP2 (purified recombinant …); experiment: MSD assay: biotinylated TROP2 on streptavidin plate, antibody titrated, anti-human SULFO-TAG detection
# [10] = molecular target: T3, human TROP2 (purified recombinant …); experiment: SPR, Carterra LSA; antibody captured on anti-human IgG, antigen injected; 1:1 fit; remark: listed apart in the source
# [11] = molecular target: T4, mouse TROP2 (purified recombinant …); experiment: SPR, Carterra LSA; antibody captured on anti-human IgG, antigen injected
Binder,EC50 [1],EC50 (read off the curve) [2],Kd [3],Kd [4],Kd [5],EC50 (read off the curve) [6],Fold difference in affinity (huTROP2:msTROP2) [7],binding result [8],EC50 (read off the curve) [9],Kd [10],koff [10],kon [10],binding result [11]
B1,673 pM,~20 pM,460 pM,960 pM,600 pM,~20 pM,2.1 fold,no binding (tested: 1 µM top concentration),~200 pM,460 pM,0.000155 s⁻¹,337000 M⁻¹ s⁻¹,
B2,1990 pM,~30 pM,230 pM,1590 pM,110 pM,,6.9 fold,no binding (tested: 1 µM top concentration),,230 pM,3.42e-05 s⁻¹,148000 M⁻¹ s⁻¹,
B3,607 pM,~20 pM,350 pM,350 pM,480 pM,~20 pM,1 fold,no binding (tested: 1 µM top concentration),,350 pM,0.000223 s⁻¹,643000 M⁻¹ s⁻¹,
B4,738 pM,~20 pM,100 pM,300 pM,130 pM,~20 pM,2.9 fold,no binding (tested: 1 µM top concentration),~200 pM,100 pM,5.53e-05 s⁻¹,542000 M⁻¹ s⁻¹,
B5,1070 pM,,1650 pM,,1820 pM,,,no binding (tested: 1 µM top concentration),~200 pM,1650 pM,0.000574 s⁻¹,348000 M⁻¹ s⁻¹,no binding (tested: 1 µM top concentration)
B6,1050 pM,~5000 pM,11500 pM,13600 pM,15300 pM,,1.2 fold,no binding (tested: 1 µM top concentration),,11500 pM,0.000294 s⁻¹,25500 M⁻¹ s⁻¹,
B7,2200 pM,,430 pM,,380 pM,,,no binding (tested: 1 µM top concentration),~200 pM,430 pM,0.000163 s⁻¹,377000 M⁻¹ s⁻¹,no binding (tested: 1 µM top concentration)

# — patent US20250019457A1 (IBIO, published 2025)
